# Experimental data published in US20020061306A1.
# B1: α2-macroglobulin (native α2M) (protein, UniProt P01023 24-1474, looked up)
# chain: SVSGKPQYMVLVPSLLHTETTEKGCVLLSYLNETVTVSASLESVRGNRSLFTDLEAENDVLHCVAFAVPKSSSNEEVMFLTVQVKGPTQEFKKRTTVMVKNEDSLVFVQTDKSIYKPGQTVKFRVVSMDENFHPLNELIPLVYIQDPKGNRIAQWQSFQLEGGLKQFSFPLSSEPFQGSYKVVVQKKSGGRTEHPFTVEEFVLPKFEVQVTVPKIITILEEEMNVSVCGLYTYGKPVPGHVTVSICRKYSDASDCHGEDSQAFCEKFSGQLNSHGCFYQQVKTKVFQLKRKEYEMKLHTEAQIQEEGTVVELTGRQSSEITRTITKLSFVKVDSHFRQGIPFFGQVRLVDGKGVPIPNKVIFIRGNEANYYSNATTDEHGLVQFSINTTNVMGTSLTVRVNYKDRSPCYGYQWVSEEHEEAHHTAYLVFSPSKSFVHLEPMSHELPCGHTQTVQAHYILNGGTLLGLKKLSFYYLIMAKGGIVRTGTHGLLVKQEDMKGHFSISIPVKSDIAPVARLLIYAVLPTGDVIGDSAKYDVENCLANKVDLSFSPSQSLPASHAHLRVTAAPQSVCALRAVDQSVLLMKPDAELSASSVYNLLPEKDLTGFPGPLNDQDNEDCINRHNVYINGITYTPVSSTNEKDMYSFLEDMGLKAFTNSKIRKPKMCPQLQQYEMHGPEGLRVGFYESDVMGRGHARLVHVEEPHTETVRKYFPETWIWDLVVVNSAGVAEVGVTVPDTITEWKAGAFCLSEDAGLGISSTASLRAFQPFFVELTMPYSVIRGEAFTLKATVLNYLPKCIRVSVQLEASPAFLAVPVEKEQAPHCICANGRQTVSWAVTPKSLGNVNFTVSAEALESQELCGTEVPSVPEHGRKDTVIKPLLVEPEGLEKETTFNSLLCPSGGEVSEELSLKLPPNVVEESARASVSVLGDILGSAMQNTQNLLQMPYGCGEQNMVLFAPNIYVLDYLNETQQLTPEIKSKAIGYLNTGYQRQLNYKHYDGSYSTFGERYGRNQGNTWLTAFVLKTFAQARAYIFIDEAHITQALIWLSQRQKDNGCFRSSGSLLNNAIKGGVEDEVTLSAYITIALLEIPLTVTHPVVRNALFCLESAWKTAQEGDHGSHVYTKALLAYAFALAGNQDKRKEVLKSLNEEAVKKDNSVHWERPQKPKAPVGHFYEPQAPSAEVEMTSYVLLAYLTAQPAPTSEDLTSATNIVKWITKQQNAQGGFSSTQDTVVALHALSKYGAATFTRTGKAAQVTIQSSGTFSSKFQVDNNNRLLLQQVSLPELPGEYSMKVTGEGCVYLQTSLKYNILPEKEEFPFALGVQTLPQTCDEPKAHTSFQISLSVSYTGSRSASNMAIVDVKMVSGFIPLKPTVKMLERSNHVSRTEVSSNHVLIYLDKVSNQTLSLFFTVLQDVPVRDLKPAIVKVYDYYETDEFAIAEYNAPCSKDLGNA
# Target: different strains of S. pyogenes (surface of the bacteria)
binder,measurement,value
B1,% of added radiolabeled α2M bound,0 to 76%
